The record followed here is US20030003451A1, “Novel G protein-coupled receptors” (priority 2000, published 2003).

In test [1] the test system is CHO cells stably transfected with a nGPCR-x expression vector. Description: Intracellular calcium measurement using FLIPR, positive controls. In kind it is cell-based, Chinese Hamster. The conditions noted are these: A23187 10 μM, ATP 4 μM. The protocol:
Changes in intracellular calcium levels are another recognized indicator of G protein-coupled receptor activity, and such assays can be employed to screen for modulators of nGPCR-x activity. For example, CHO cells stably transfected with a nGPCR-x expression vector are plated at a density of 4×10^4 cells/well in Packard black-walled, 96-well plates specially designed to discriminate fluorescence signals emanating from the various wells on the plate. The cells are incubated for 60 minutes at 37 C. in modified Dulbecco's PBS (D-PBS) containing 36 mg/L pyruvate and 1 g/L glucose with the addition of 1% fetal bovine serum and one of four calcium indicator dyes (Fluo-3™ AM, Fluo-4™ AM, Calcium Green™-1 AM, or Oregon Green™ 488 BAPTA-1 AM), each at a concentration of 4 μM. […]
A calcium response is initiated by the addition of one or more candidate receptor agonist compounds, calcium ionophore A23187 (10 μM; positive control), or ATP (4 μM; positive control). Fluorescence is measured by Molecular Device's FLIPR with an argon laser (excitation at 488 nm). […] Basal fluorescence of cells was measured for 20 seconds prior to addition of candidate agonist, ATP, or A23187, and the basal fluorescence level was subtracted from the response signal. The calcium signal is measured for approximately 200 seconds, taking readings every two seconds. […]

The target in test [2] is T1, nGPCR-51 (Homo sapiens, UniProt Q969V1).
T1 construct: expressed in transfected cells
T1 sequence (Q969V1 whole entry): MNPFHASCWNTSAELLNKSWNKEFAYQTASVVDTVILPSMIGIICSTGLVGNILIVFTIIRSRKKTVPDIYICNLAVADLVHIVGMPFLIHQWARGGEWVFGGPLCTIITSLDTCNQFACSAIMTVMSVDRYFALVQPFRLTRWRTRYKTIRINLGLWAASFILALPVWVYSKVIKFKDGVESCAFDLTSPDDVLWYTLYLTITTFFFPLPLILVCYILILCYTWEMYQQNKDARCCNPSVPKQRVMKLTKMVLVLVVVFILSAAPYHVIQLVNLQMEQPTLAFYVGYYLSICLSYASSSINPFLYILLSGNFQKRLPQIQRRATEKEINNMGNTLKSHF
Briefly: NFkB-Luciferase reporter gene assay, nGPCR-51 (Seq51)-transfected N7 (HOS) cells. The format is cell-based. The conditions noted are these: 5-hr incubation, 2 separate experiments, read-out: EC50, luciferase expression. The method, then:
nGPCR-51 was transfected in N7 cells, stable HOS (human osteosarcoma) cells expressing NFkB-Luciferase reporter gene Briefly, LipofectAMINE, PLUS reagent, and 4 μg DNA were added to cells in Opti-MEM. After 4 hours, serum-containing medium was added to each plate. Twenty-four hour after transfection the cells were trypsinized and seeded in COSTAR white 96-well plate at a cell density of about 20,000 cells per well. Another 24 hours later the culture medium was replaced with fresh growth medium and Peptide A was added. After 5-hr incubation with Peptide A, the medium was aspirated and 100 μL diluted Steady Glo was added. The plates were gently shake at room temperature for 30 minutes and luminescence determined by TopCount at the SPC mode.

Test [3] deals with T1, nGPCR-51. Briefly: Intracellular calcium measurement using FLIPR, nGPCR-51-transfected HEK293 cells. In kind it is cell-based. The note with it: fluo-4, FLIPR, read-out: EC50, calcium mobilization. The protocol: (§1) HEK293 cells were transiently transfected with an expression vector for nGPCR-51 and empty vector using Lipofectamine plus (Gibco) according to the manufacturer's instructions. The next day, the cells were seeded into 96-well plates at 25,000 cells per well. The following day, cells were loaded with 1 uM Fluo-4-acetoxymethyl fluorescent indicator dye (Molecular Probes) in MEM (minimal essential media) containing 0.1% bovine serum albumin, 0.04% pluronic acid and 2.5 mM probenecid for 30 minutes at 37 C. The cells were washed with pre-warmed (37 C.) assay buffer (Hanks buffer containing 15 mM HEPES, 2.5 mM probenecid and 0.1% bovine serum albumin). Assay buffer (100 ul) was added to each well and plates were incubated at 37 C. for 15 minutes. Various concentrations (0.03 pM-10 nM) of human Peptide A or salmon Peptide B were added and fluorescence produced by fluo-4 (a calcium sensitive dye) was measured every second for 150 seconds on a fluorometric imaging plate reader (FLIPR1; Molecular Devices). Human Peptide A and salmon Peptide B-induced calcium mobilization in nGPCR-51-transfected cells with EC50 values of 3 nM and 6 nM, respectively. Human Peptide A and salmon Peptide B had no effect on vector-transfected cells.

Test [4] deals with vector-transfected cells. Briefly: Intracellular calcium measurement using FLIPR, empty vector control HEK293 cells. In kind it is cell-based, human. The conditions noted are these: 0.03 pM-10 nM. The protocol:
as §1

For test [5], the target named is T2, nGPCR-51 (human (H. sapiens), UniProt Q969V1 1-340).
T2 construct: The functional assays used whole cells
T2 sequence (Q969V1 whole entry): as above
Description: saturation radioligand binding, membranes of COS 7 cells transiently expressing nGPCR-51, filtration. The protocol: HEK 293 or COS 7 cells transiently expressing nGPCR-51, or CHO K-I cells stable expressing nGPCR-51, were grown to sub-confluence (2 days post-transfection for transients), harvested from flasks in Dulbecco's PBS and pelleted by low speed centrifugation (2500 rpm) for 10 minutes. Cell pellets were homogenized in 10 ml tissue buffer (50 mM Hepes, 10 mM MgCl₂, 2 mM EGTA, 1 μg/ml aprotinin, 1 μg/ml leupeptin hemisulfate, 1 μg/ml pepstatin A, pH 7.0) using a dounce, 10 strokes. Homogenate was centrifuged at 47,000× g for 15 minutes. Membrane pellet was resuspended in 1 ml tissue buffer using the dounce, 10 strokes. An aliquot of the membrane preparation was used to determine protein concentration. For measurement of saturation binding, 10 μg of cell membranes were incubated with various concentrations of [¹²⁵I] Peptide A (iodinated by routine procedures via the Tyr residue) in 300 μl binding assay buffer (tissue buffer plus 0.15 mM Bacitracin and 0.1% ovalbumin) for 90 minutes at room temperature in 96-well plates. Non-specific binding was defined by the inclusion of 1 μM Peptide A. After the binding incubation, plates were harvested onto GF/C filters presoaked in 0.3% non-fat dry milk. […] Filter plates were then counted in a Packard Topcount™ 96-well microplate scintillation counter. Data were analyzed using GraphPad Prism (San Diego, Calif.) and Kd and Bmax values were calculated. […]

Test [6] addresses T2, nGPCR-51. Briefly: cell-based or functional assay.

Bridge positions count the residues as written; N and C are the ends. Ends that are not written are not given here. Peptide text beside a SMILES is read from it. * marks the point of attachment. 125I = [125I]*

For the molecule `Nc1ncnc2c1ncn2[C@@H]1O[C@H](COP(=O)(O)OP(=O)(O)OP(=O)(O)O)[C@@H](O)[C@H]1O` [ATP], the “increase of calcium signal above baseline levels” value in test [1] was found to be 200%. For `CNc1ccc2oc(C[C@H]3O[C@@]4(CC[C@H]3C)O[C@H]([C@H](C)C(=O)c3ccc[nH]3)[C@H](C)C[C@H]4C)nc2c1C(=O)O` [Peptide A23187], the “increase of calcium signal above baseline levels” value in test [1] was found to be 200%. With `CSCC[C@@H]1NC(=O)[C@@H](NC(=O)[C@H](CCCNC(=N)N)NC(=O)[C@H](CCSC)NC(=O)[C@@H](NC(=O)[C@@H](N)CC(=O)O)[C@@H](C)O)CSSC[C@@H](C(=O)N[C@@H](Cc2c[nH]c3ccccc23)C(=O)N[C@@H](CCC(=O)O)C(=O)N[C@H](C(=O)O)C(C)C)NC(=O)[C@@H]2CCCN2C(=O)[C@H](CCCNC(=N)N)NC(=O)[C@H](Cc2ccc(O)cc2)NC(=O)[C@H](C(C)C)NC(=O)[C@H](CCCNC(=N)N)NC(=O)CNC(=O)[C@H](C(C)C)NC1=O` [salmon Peptide B, Asp Thr Met Arg Cys Met Val Gly Arg Val Tyr Arg Pro Cys Trp Glu Val] (HELM PEPTIDE1{D.T.M.R.C.M.V.G.R.V.Y.R.P.C.W.E.V}$PEPTIDE1,PEPTIDE1,5:R3-14:R3$$$V2.0; N-terminus and C-terminus assumed), the concentration giving a half-maximal response (EC50) in test [2] was around 25 nM; in test [3], 6 nM. For the same molecule, the “effect on calcium mobilization in vector-transfected cells” value in test [4] is given as “no effect”.

B1: [^125I] Peptide A (peptide)
peptide: DFDMLRCMLGRVY(125I)RPCWQV
modifications: disulfide 7-16 (inferred)
With B1, binding in test [5] was put at a Kd of 0.254 nM.

B2: Peptide A (peptide)
peptide: DFDMLRCMLGRVYRPCWQV
modifications: disulfide 7-16 (inferred)
Regarding B2, in test [6], the “aequorin luminescence, EC50” value is around 40 nM; the “aequorin luminescence, maximum response” value was 52 fold over baseline; the “calcium mobilization (FLIPR, fluo-4, HEK293 cells), EC50” value was determined as 3 nM.

B3: Salmon Peptide B (peptide)
peptide: DTMRCMVGRVYRPCWEV
As for B3, in test [6], the “calcium mobilization (FLIPR, fluo-4, HEK293 cells), EC50” value stood at 6 nM and the “luciferase expression (NFkB-Luciferase reporter, N7 cells), EC50” value is around 25 nM.
